According to PMC5095531:

Target: T1, native human lipocalin 2 (LCN2) (human), P80188
T1 chain: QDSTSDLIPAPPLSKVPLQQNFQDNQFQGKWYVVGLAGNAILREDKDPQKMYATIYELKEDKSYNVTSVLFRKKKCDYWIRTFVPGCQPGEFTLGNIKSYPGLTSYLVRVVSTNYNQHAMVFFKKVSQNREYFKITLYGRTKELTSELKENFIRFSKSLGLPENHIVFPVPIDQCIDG
Experiment: non-reducing SDS-PAGE with immunoblot; purified proteins in vitro, non-reducing conditions, anti-human LCN2 antibodies; monomer about 20 kDa, dimer about 40 kDa
Details: remark: other sources report otherwise

stoichiometry N: 2
B1: native human lipocalin 2 (LCN2), P80188-1 21-198 (natural protein)
chain: QDSTSDLIPAPPLSKVPLQQNFQDNQFQGKWYVVGLAGNAILREDKDPQKMYATIYELKEDKSYNVTSVLFRKKKCDYWIRTFVPGCQPGEFTLGNIKSYPGLTSYLVRVVSTNYNQHAMVFFKKVSQNREYFKITLYGRTKELTSELKENFIRFSKSLGLPENHIVFPVPIDQCIDG
